≈ marks a conversion by molar mass, not a printed value. Like-named read-outs stand apart in the source and are kept apart here. Starred links: 1 amine or outer side, 2 acyl side, 3 side chain; linkers in the order of their positions; H or OH if unused. Non-standard residues stand in square brackets, D forms with d. Residues, ends and D or L forms follow the SMILES beside them. ξ: configuration not given here. *: point of attachment. X1 = COc1cccc2c1C(=O)c1c(O)c3c(c(O)c1C2=O)C[C@@](O)(C(=O)CO)C[C@@H]3OC1CC(N*)C(O)C(C)O1; X2 = COc1cccc2c1C(=O)c1c(O)c3c(c(O)c1C2=O)CC(O)(C(=O)CO)CC3OC1CC(N*)C(O)C(C)O1; Glutaryl = O=C(CCCC(=O)[*:2])[*:1]; Hyp = O=C(O)[C@@H]1C[C@@H](O)CN1; Chg = N[C@H](C(=O)O)C1CCCCC1; ξChg = NC(C(=O)O)C1CCCCC1; ξHyp = O=C(O)C1CC(O)CN1; ξS = NC(CO)C(=O)O; ξA = CC(N)C(=O)O
Tests used:
Format in all cases: physicochemical
[1] = Solubility in water at room temperature
From the text: (§1) It has further been discovered that the sodium salt of the Formula 5 offers advantages with respect to dissolution in water.
It has further been discovered that the lyophilized formulation offers advantages with respect to dissolution in water.

[2] = Thermal / storage stability; details: sodium salt compared with free acid
Description: (§2) An aqueous solution of the sodium salt of the instant invention has a pH of greater than 5.0. It has been discovered that the bond between the sugar moiety of doxorubicin and the tetracyclic doxorubicinone moiety is more readily cleaved at aqueous pH of less than 4.0. Therefore the sodium salt offers clear formulation advantages over the free acid, which has an unbuffered aqueous pH of less than 4.0.
In particular, the lyophilized formulation is prepared by the addition of a salt of a carboxylic acid to an aqueous solution of the previously described free acid compound 4. The amount of carboxylate salt that is added to the prelyophilization solution of the compound of formula 4 is from about 3 molar equivalents of base of trisodium citrate per mole of compound 4 to about 9 molar equivalents of base per mole of compound 4. Preferably, the amount of salt that is added is about 5 molar equivalents of base per mole of compound 4.

pH of aqueous solution = details: unbuffered aqueous solution
From the text: as §2

[3] = Aggregate formation on dissolution in water (filtration through 0.22μ filter)
From the text: as §1

For `COc1cccc2c1C(=O)c1c(O)c3c(c(O)c1C2=O)C[C@@](O)(C(=O)CO)C[C@@H]3OC1CC(NC(=O)[C@H](CC(C)C)NC(=O)[C@H](CO)NC(=O)[C@H](CCC(N)=O)NC(=O)[C@@H](NC(=O)[C@H](CO)NC(=O)[C@H](C)NC(=O)[C@@H]2C[C@@H](O)CN2C(=O)CCCC(=O)O)C2CCCCC2)C(O)C(C)O1` (stereo partly drawn) [Compound 4, [N-Glutaryl-(4-trans-L-Hyp)]-Ala-Ser-Chg-Gln-Ser-Leu-Dox] (Glutaryl-[Hyp]AS[Chg]QSL-X1), the solubility [1] was 13.8 mg/mL of water, the solubility ([1]; pH 2.35) was 3.98 mg/mL (≈ 2850 µM) and the solubility ([1]; pH 5.72, water) was over 156 mg/mL.
In the case of `COc1cccc2c1C(=O)c1c(O)c3c(c(O)c1C2=O)CC(O)(C(=O)CO)CC3OC1CC(NC(=O)[C@H](CC(C)C)NC(=O)C(CO)NC(=O)[C@H](CCC(N)=O)NC(=O)C(NC(=O)C(CO)NC(=O)C(C)NC(=O)C2CC(O)CN2C(=O)CCCC(=O)[O-])C2CCCCC2)C(O)C(C)O1.[Na+]` (stereo partly drawn) [Compound 5, [N-Glutaryl-(4-trans-L-Hyp)]-Ala-Ser-Chg-Gln-Ser-Leu-Dox Sodium salt] (Glutaryl-[ξHyp][ξA][ξS][ξChg]Q[ξS]L-X2), the thermal stability [2] is reported as “more thermally stable than the corresponding free acid compound”, the “pH of aqueous solution” value (pH of aqueous solution) is reported as “greater than 5.0” and the solubility ([1]; room temperature, water, read-out: solubility) is reported as over 277 mg/mL. For the same compound, the “formation of aggregates on dissolution in water” value [3] was “dissolves in water without forming aggregates”.
